In patent US10772928B2, “Modulation and detection of a neuronal alternative splicing regulatory network for treatment and diagnosis of neurological disorders” (The Governing Council of the University of Toronto, priority 2014, dated 2020):

T1: nSR100 (Mus musculus, UniProt Q8BKA3)
T1 construct: host or cells: mouse N2A cells
T1 sequence (Q8BKA3 1-608): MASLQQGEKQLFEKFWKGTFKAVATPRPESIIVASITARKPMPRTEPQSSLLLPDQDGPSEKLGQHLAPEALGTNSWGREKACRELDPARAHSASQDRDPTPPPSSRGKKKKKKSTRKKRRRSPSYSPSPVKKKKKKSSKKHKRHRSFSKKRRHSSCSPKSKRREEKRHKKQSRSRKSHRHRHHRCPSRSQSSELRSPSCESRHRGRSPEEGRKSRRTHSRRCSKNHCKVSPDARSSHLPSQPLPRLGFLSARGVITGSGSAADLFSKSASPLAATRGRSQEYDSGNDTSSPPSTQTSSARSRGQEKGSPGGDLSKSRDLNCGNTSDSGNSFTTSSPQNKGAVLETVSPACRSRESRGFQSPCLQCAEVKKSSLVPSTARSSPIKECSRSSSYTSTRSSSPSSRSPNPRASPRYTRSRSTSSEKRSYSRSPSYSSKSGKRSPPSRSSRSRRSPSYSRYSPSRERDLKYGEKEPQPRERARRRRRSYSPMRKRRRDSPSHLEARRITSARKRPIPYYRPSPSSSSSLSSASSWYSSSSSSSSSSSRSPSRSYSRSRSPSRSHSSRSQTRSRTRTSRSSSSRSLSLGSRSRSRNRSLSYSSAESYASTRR


Biological target: T1, nSR100
Assay: AP-MS nSR100 interaction partners from mouse N2A cells (Table 5)
Format: binding
Settings: for AvgP (average of the SAINT scores) / MaxP (maximal SAINT score): bait Srrm4; for FoldChange between the prey Avg spectra of the bait and control purifications: bait Srrm4, 0.1 added to prevent division by 0; for AvgSpec (average number of spectra per replicate): bait Srrm4, 2 replicates; for Spectra (number of spectra for the prey in the purification of the bait): AP-MS; for SpecSum: bait Srrm4, sum of spectra over 2 replicates
[1] = bait Srrm4, biological replicate 1 (first number of the cell)
[2] = bait Srrm4, biological replicate 2 (second number of the cell)

Description: By applying affinity purification coupled to mass-spectrometry (AP-MS), several interaction nSR100 partner proteins were detected that provide insight into mechanisms of post-translational regulation of nSR100 levels.

AvgP (average of the SAINT scores)	MaxP (maximal SAINT score)	FoldChange between the prey Avg spectra of the bait and control purifications	AvgSpec (average number of spectra per replicate)	Spectra (number of spectra for the prey in the purification of the bait) [1]	Spectra (number of spectra for the prey in the purification of the bait) [2]	SpecSum	Molecule
0.91	1	5.71	20	11	29	40	Prpf19 (protein, UniProt Q99KP6 2-504, looked up) Pre-mRNA-processing factor 19: SLICSISNEVPEHPCVSPVSNHVYERRLIEKYIAENGTDPINNQPLSEEQLIDIKVAHPIRPKPPSATSIPAILKALQDEWDAVMLHSFTLRQQLQTTRQELSHALYQHDAACRVIARLTKEVTAAREALATLKPQAGLIVPQAVPSSQPSVVGAGEPMDLGELVGMTPEIIQKLQDKATVLTTERKKRGKTVPEELVKPEELSKYRQVASHVGLHSASIPGILALDLCPSDTNKILTGGADKNVVVFDKSTEQILATLKGHTKKVTSVVFHPSQELVFSASPDATIRIWSVPNTSCVQVVRAHESAVTGLSLHATGDYLLSSSDDQYWAFSDIQTGRVLTKVTDETSGCSLTCAQFHPDGLIFGTGTMDSQIKIWDLKERTNVANFPGHSGPITSIAFSENGYYLATAADDSSVKLWDLRKLKNFKTLQLDNNFEVKSLIFDQSGTYLALGGTDVQIYICKQWTEILHFTEHSGLTTGVAFGHHAKFIASTGMDRSLKFYSL
0.95	0.95	20	2	2|2	2|2	4	Crnkl1 (protein, UniProt P63154 1-690, looked up) Crooked neck-like protein 1: MAASTAAGKQRIPKVAKVKNKAPAEVQITAEQLLREAKERELELLPPPPQQKITDEEELNDYKLRKRKTFEDNIRKNRTVISNWIKYAQWEESLKEIQRARSIYERALDVDYRNITLWLKYAEMEMKNRQVNHARNIWDRAITTLPRVNQFWYKYTYMEEMLGNVAGARQVFERWMEWQPEEQAWHSYINFELRYKEVERARTIYERFVLVHPAVKNWIKYARFEEKHAYFAHARKVYERAVEFFGDEHMDEHLYVAFAKFEENQKEFERVRVIYKYALDRISKQEAQELFKNYTIFEKKFGDRRGIEDIIVSKRRFQYEEEVKANPHNYDAWFDYLRLVESDAEADTVREVYERAIANVPPIQEKRHWKRYIYLWVNYALYEELEAKDPERTRQVYQASLELIPHKKFTFAKMWLYYAQFEIRQKNLPFARRALGTSIGKCPKNKLFKGYIELELQLREFDRCRKLYEKFLEFGPENCTSWIKFAELETILGDIERARAIYELAISQPRLDMPEVLWKSYIDFEIEQEETERTRNLYRQLLQRTQHVKVWISFAQFELSSGKEGSVAKCRQIYEEANKTMRNCEEKEERLMLLESWRSFEDEFGTVSDKERVDKLMPEKVKKRRKVQADDGSDAGWEEYYDYIFPEDAANQPNLKLLAMAKLWKKQQQEREAAEQDPDKDIDESESSSF
0.91	0.96	7	7	6	8	14	Smc3 (protein, UniProt Q9CW03 1-1217, looked up) Structural maintenance of …: MYIKQVIIQGFRSYRDQTIVDPFSSKHNVIVGRNGSGKSNFFYAIQFVLSDEFSHLRPEQRLALLHEGTGPRVISAFVEIIFDNSDNRLPIDKEEVSLRRVIGAKKDQYFLDKKMVTKNDVMNLLESAGFSRSNPYYIVKQGKINQMATAPDSQRLKLLREVAGTRVYDERKEESISLMKETEGKREKINELLKYIEERLHTLEEEKEELAQYQKWDKMRRALEYTIYNQELNETRAKLDELSAKRETSGEKSRQLRDAQQDARDKMEDIERQVRELKTKISAMKEEKEQLSAERQEQIKQRTKLELKAKDLQDELAGNSEQRKRLLKERQKLLEKIEEKQKELAETEPKFNSVKEKEERGIARLAQATQERTDLYAKQGRGSQFTSKEERDKWIKKELKSLDQAINDKKRQIAAIHKDLEDTEANKEKNLEQYNKLDQDLNEVKARVEELDRKYYEVKNKKDELQSERNYLWREENAEQQALAAKREDLEKKQQLLRAATGKAILNGIDSINKVLEHFRRKGINQHVQNGYHGIVMNNFECEPAFYTCVEVTAGNRLFYHIVDSDEVSTKILMEFNKMNLPGEVTFLPLNKLDVRDTAYPETNDAIPMISKLRYNPRFDKAFKHVFGKTLICRSMEVSTQLARAFTMDCITLEGDQVSHRGALTGGYYDTRKSRLELQKDVRKAEEELGELEAKLNENLRRNIERINNEIDQLMNQMQQIETQQRKFKASRDSILSEMKMLKEKRQQSEKTFMPKQRSLQSLEASLHAMESTRESLKAELGTDLLSQLSLEDQKRVDALNDEIRQLQQENRQLLNERIKLEGIITRVETYLNENLRKRLDQVEQELNELRETEGGTVLTATTSELEAINKRVKDTMARSEDLDNSIDKTEAGIKELQKSMERWKNMEKEHMDAINHDTKELEKMTNRQGMLLKKKEECMKKIRELGSLPQEAFEKYQTLSLKQLFRKLEQCNTELKKYSHVNKKALDQFVNFSEQKEKLIKRQEELDRGYKSIMELMNVLELRKYEAIQLTFKQVSKNFSEVFQKLVPGGKATLVMKKGDVEGSQSQDEGEGSGESERGSGSQSSVPSVDQFTGVGIRVSFTGKQGEMREMQQLSGGQKSLVALALIFAIQKCDPAPFYLFDEIDQALDAQHRKAVSDMIMELAVHAQFITTTFRPELLESADKFYGVKFRNKVSHIDVITAEMAKDFVEDDTTHG
0.9	0.98	3.43	12	13	11	24	Cdk11b (protein, UniProt P24788 1-784, looked up) Cyclin-dependent kinase 11B: MGDEKDSWKVKTLDEILQEKKRRKEQEEKAEIKRLKNSDDRDSKRDSLEEGELRDHRMEITIRNSPYRREDSMEDRGEEDDSLAIKPPQQMSRKEKAHHRKDEKRKEKRRHRSHSAEGGKHARVKEKEREHERRKRHREEQDKARREWERQKRREMAREHSRRERDRLEQLERKRERERKLREQQKEQREQKERERRAEERRKEREARREVSAHHRTMREEYSDKGKVGHWSRSPLRPPRERFEMGDNRKPVKEEKVEERDLLSDLQDISDSERKTSSAESSSAESGSGSEEEEEEEEEEEEEEGSTSEESEEEEEEEEEEEEEETGSNSEEASEQSAEEVSDEEMSEDEDRENENHILVVPESRFDRDSGDSEEGEEEVGEGTPQSSAPTEGDYVPDSPALSPIELKQELPKYLPALQGCRSVEEFQCLNRIEEGTYGVVYRAKDKKTDEIVALKRLKMEKEKEGFPITSLREINTILKAQHPNIVTVREIVVGSNMDKIYIVMNYVEHDLKSLMETMKQPFLPGEVKTLMIQLLSGVKHLHDNWILHRDLKTSNLLLSHAGILKVGDFGLAREYGSPLKAYTPVVVTLWYRAPELLLGAKEYSTAVDMWSVGCIFGELLTQKPLFPGKSDIDQINKIFKDLGTPSEKIWPGYNDLPAVKKMTFSEYPYNNLRKRFGALLSDQGFDLMNKFLTYYPGRRINAEDGLKHEYFRETPLPIDPSMFPTWPAKSEQQRVKRGTSPRPPEGGLGYSQLGDDDLKETGFHLTTTNQGASAAGPGFSLKF
0.91	0.96	7	7	6	8	14	Csnk1e (protein, UniProt Q9JMK2 1-416, looked up) Casein kinase I isoform …: MELRVGNKYRLGRKIGSGSFGDIYLGANIASGEEVAIKLECVKTKHPQLHIESKFYKMMQGGVGIPSIKWCGAEGDYNVMVMELLGPSLEDLFNFCSRKFSLKTVLLLADQMISRIEYIHSKNFIHRDVKPDNFLMGLGKKGNLVYIIDFGLAKKYRDARTHQHIPYRENKNLTGTARYASINTHLGIEQSRRDDLESLGYVLMYFNLGSLPWQGLKAATKRQKYERISEKKMSTPIEVLCKGYPSEFSTYLNFCRSLRFDDKPDYSYLRQLFRNLFHRQGFSYDYVFDWNMLKFGAARNPEDVDRERREHEREERMGQLRGSATRALPPGPPTGATANRLRSAAEPVASTPASRIQQTGNTSPRAISRADRERKVSMRLHRGAPANVSSSDLTGRQEVSRLAASQTSVPFDHLGK
